Blank lines part the entries; values can stand above or below the molecule they belong to.
How the values were obtained:
recombinant CD135 (Flt3) [1] = molecular target: recombinant CD135 (Flt3) (UniProt Q00342); experiment: ELISA
recombinant CD135 (Flt3) [2] = molecular target: T1, recombinant CD135 (Flt3) (UniProt Q00342 28-544); experiment: ELISA
T1 sequence (looked up): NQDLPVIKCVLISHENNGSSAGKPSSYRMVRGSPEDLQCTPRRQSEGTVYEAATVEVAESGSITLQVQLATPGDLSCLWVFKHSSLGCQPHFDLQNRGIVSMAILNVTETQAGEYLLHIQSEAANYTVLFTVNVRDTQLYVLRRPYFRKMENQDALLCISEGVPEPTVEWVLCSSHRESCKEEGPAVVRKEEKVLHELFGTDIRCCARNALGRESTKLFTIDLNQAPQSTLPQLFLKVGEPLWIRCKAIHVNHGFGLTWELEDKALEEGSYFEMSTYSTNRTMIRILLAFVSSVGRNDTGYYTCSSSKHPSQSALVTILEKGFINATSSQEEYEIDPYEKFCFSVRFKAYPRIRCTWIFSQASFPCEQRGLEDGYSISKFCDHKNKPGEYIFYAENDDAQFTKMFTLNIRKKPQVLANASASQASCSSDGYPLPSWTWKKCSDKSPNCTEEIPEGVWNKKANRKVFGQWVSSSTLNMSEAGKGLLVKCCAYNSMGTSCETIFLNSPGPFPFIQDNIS

Kd (recombinant CD135 (Flt3) [1]): 0.16 nM
Molecule: Flt3L-SA (murine Flt3L fused at its C terminus to murine serum albumin through a (G4S)2 linker)

Kd (recombinant CD135 (Flt3) [2]): 0.16 nM
B1: native, soluble murine Flt3L (WT) (ligand, mouse, UniProt P49772 27-189, looked up)
chain: GTPDCYFSHSPISSNFKVKFRELTDHLLKDYPVTVAVNLQDEKHCKALWSLFLAQRWIEQLKTVAGSKMQTLLEDVNTEIHFVTSCTFQPLPECLRFVQTNISHLLKDTCTQLLALKPCIGKACQNFSRCLEVQCQPDSSTLLPPRSPIALEATELPEPRPRQ

From doi:10.1101/2024.03.21.586168 (bioRxiv, 2024)
